We go through 6 molecules from paper PMC2874997 (Nucleic Acids Research, 2010).

Data set [1] concerns the molecule itself. Briefly: AUC.
Data set [2] has as its target T1, DnaB (native) (Bacillus subtilis, UniProt P07908 1-472).
T1 sequence: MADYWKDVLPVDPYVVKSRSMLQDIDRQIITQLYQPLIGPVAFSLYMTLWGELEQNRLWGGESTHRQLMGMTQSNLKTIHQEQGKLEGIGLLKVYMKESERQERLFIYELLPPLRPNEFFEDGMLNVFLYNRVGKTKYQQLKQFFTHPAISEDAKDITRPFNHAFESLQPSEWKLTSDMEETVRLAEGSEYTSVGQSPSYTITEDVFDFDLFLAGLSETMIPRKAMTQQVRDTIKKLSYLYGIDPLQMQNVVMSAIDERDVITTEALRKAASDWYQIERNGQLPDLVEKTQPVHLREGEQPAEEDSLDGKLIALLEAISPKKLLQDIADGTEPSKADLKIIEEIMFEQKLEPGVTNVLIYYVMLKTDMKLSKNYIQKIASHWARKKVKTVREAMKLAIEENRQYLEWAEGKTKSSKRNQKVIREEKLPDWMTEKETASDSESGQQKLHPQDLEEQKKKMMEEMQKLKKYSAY
Nature of the data set: EMSA.

In data set [3] the target is T2, DnaBN, DnaB(1-300) (Bacillus subtilis, UniProt P07908 1-300).
T2 sequence: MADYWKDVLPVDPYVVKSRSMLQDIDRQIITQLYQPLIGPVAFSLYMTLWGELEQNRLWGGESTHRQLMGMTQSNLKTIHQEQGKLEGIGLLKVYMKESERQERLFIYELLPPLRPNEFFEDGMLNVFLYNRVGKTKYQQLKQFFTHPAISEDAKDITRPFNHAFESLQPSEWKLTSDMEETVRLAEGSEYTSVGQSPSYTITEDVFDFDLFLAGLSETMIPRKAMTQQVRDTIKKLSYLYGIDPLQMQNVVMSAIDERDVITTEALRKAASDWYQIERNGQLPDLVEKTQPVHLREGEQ
Nature of the data set: EMSA. In general terms: In EMSA bound probe runs differently from free probe, usually more slowly.

The target of data set [4] is T2, DnaBN, DnaB(1-300). Briefly: EMSA. This is another data set of the same source.
Data set [5] deals with the molecule itself. Briefly: AUC. The source holds these as a separate data set.
Data set [6] addresses T1, DnaB (native). Nature of the data set: EMSA. The source holds these as a separate data set.
The target in data set [7] is T2, DnaBN, DnaB(1-300). Nature of the data set: EMSA. This is another data set of the same source.

Read-outs that look alike come from different tables or passages of the source.

B1: DnaB(1-365), C-terminally truncated DnaB (domain or fragment, B. subtilis, UniProt P07908 1-365, looked up)
chain: MADYWKDVLPVDPYVVKSRSMLQDIDRQIITQLYQPLIGPVAFSLYMTLWGELEQNRLWGGESTHRQLMGMTQSNLKTIHQEQGKLEGIGLLKVYMKESERQERLFIYELLPPLRPNEFFEDGMLNVFLYNRVGKTKYQQLKQFFTHPAISEDAKDITRPFNHAFESLQPSEWKLTSDMEETVRLAEGSEYTSVGQSPSYTITEDVFDFDLFLAGLSETMIPRKAMTQQVRDTIKKLSYLYGIDPLQMQNVVMSAIDERDVITTEALRKAASDWYQIERNGQLPDLVEKTQPVHLREGEQPAEEDSLDGKLIALLEAISPKKLLQDIADGTEPSKADLKIIEEIMFEQKLEPGVTNVLIYYVMLK
For the molecule B1, the “stoichiometry N” value in data set [1] amounted to 4.

B2: dT135 (ssDNA)
DNA: TTTTTTTTTTTTTTTTTTTTTTTTTTTTTTTTTTTTTTTTTTTTTTTTTTTTTTTTTTTTTTTTTTTTTTTTTTTTTTTTTTTTTTTTTTTTTTTTTTTTTTTTTTTTTTTTTTTTTTTTTTTTTTTTTTTTTTT
Regarding B2, the binding result in data set [2] and in data set [3] was “binds” in each case.

B3: dT90 (ssDNA)
DNA: TTTTTTTTTTTTTTTTTTTTTTTTTTTTTTTTTTTTTTTTTTTTTTTTTTTTTTTTTTTTTTTTTTTTTTTTTTTTTTTTTTTTTTTTTT
As to B3, the binding result in data set [4] and in data set [2] was “binds” throughout.

B4: DnaBN, DnaB residues 1-300 (N-terminal domain plus the central domain) (domain or fragment, B. subtilis, UniProt P07908 1-300, looked up)
chain: MADYWKDVLPVDPYVVKSRSMLQDIDRQIITQLYQPLIGPVAFSLYMTLWGELEQNRLWGGESTHRQLMGMTQSNLKTIHQEQGKLEGIGLLKVYMKESERQERLFIYELLPPLRPNEFFEDGMLNVFLYNRVGKTKYQQLKQFFTHPAISEDAKDITRPFNHAFESLQPSEWKLTSDMEETVRLAEGSEYTSVGQSPSYTITEDVFDFDLFLAGLSETMIPRKAMTQQVRDTIKKLSYLYGIDPLQMQNVVMSAIDERDVITTEALRKAASDWYQIERNGQLPDLVEKTQPVHLREGEQ
Regarding B4, in data set [5], binding was characterised by a dissociation constant (Kd) of 500 nM and the “stoichiometry N” value worked out at 4.

B5: DnaB(1-428), C-terminally truncated DnaB (domain or fragment, B. subtilis, UniProt P07908 1-428, looked up)
chain: MADYWKDVLPVDPYVVKSRSMLQDIDRQIITQLYQPLIGPVAFSLYMTLWGELEQNRLWGGESTHRQLMGMTQSNLKTIHQEQGKLEGIGLLKVYMKESERQERLFIYELLPPLRPNEFFEDGMLNVFLYNRVGKTKYQQLKQFFTHPAISEDAKDITRPFNHAFESLQPSEWKLTSDMEETVRLAEGSEYTSVGQSPSYTITEDVFDFDLFLAGLSETMIPRKAMTQQVRDTIKKLSYLYGIDPLQMQNVVMSAIDERDVITTEALRKAASDWYQIERNGQLPDLVEKTQPVHLREGEQPAEEDSLDGKLIALLEAISPKKLLQDIADGTEPSKADLKIIEEIMFEQKLEPGVTNVLIYYVMLKTDMKLSKNYIQKIASHWARKKVKTVREAMKLAIEENRQYLEWAEGKTKSSKRNQKVIREEKLP
In the case of B5, the “stoichiometry N” value in data set [1] stood at 4. As to TTTTTTTTTTTTTTTTTTTTTTTTTTTTTTTTTTTTTTTTTTTTT (ssDNA) [dT45], the binding result in data set [6] and in data set [7] was “binds” in each case.

One may read the stoichiometry N as a count of units in the complex or per binding partner. The Kd is the equilibrium constant for the complex coming apart. Low values mean higher affinity, high ones lower affinity.
